Source: patent CN113912709A (SHENZHEN NATIONAL CLINICAL RES CENTER FOR INFECTIOUS …, dated 2022)

Legend:
Test in all cases: SPR, Biacore 8K, RBD on CM5 chip, IgG injected, 1:1 model
[1] = target: T1, SARS-CoV-2 RBD protein T478K mutant (SARS-CoV-2, UniProt P0DTC2 319-541)
T1 construct: domain: RBD

[2] = target: T2, SARS-CoV-2 Kappa variant RBD protein (L452R and E484Q) (SARS-CoV-2, UniProt P0DTC2 319-541)
T2 construct: domain: RBD; also called L452R和E484Q

[3] = target: T3, SARS-CoV-2 Delta variant RBD protein (L452R and T478K) (SARS-CoV-2, UniProt P0DTC2 319-541)
T3 construct: domain: RBD; also called L452R和T478K

[4] = target: T4, SARS-CoV-2 RBD protein E484Q mutant (SARS-CoV-2, UniProt P0DTC2 319-541)
T4 construct: domain: RBD

Row | Binder | Kd [1] | Kd [2] | Kd [3] | Kd [4]
1 | VacW-209 (antibody, V domains shown) VH: QVQLVESGGGVVQPGRSLRLSCAASGFTFSSIAMHWVRQAPGKGLEWVAVMSFDGSIKYYGDSVKGRFTISRDNSKSTLYLQMNSLRAEDTAVYYCARGVQGYYDRSGYYNLDYNYGMDVWGQGTTVTVSS VL: QSVLTQPPSVSGAPGQRVTISCTGSSSNIGAGYDVHWYQQLPGTAPKLLIYGNSNRPSGVPDRFSGSKSGTSASLAITGLQAEDEADYYCQSYDSSLSGWVFGGGTKLTVL | 0.023 nM | 0.0234 nM | 0.0467 nM | 0.033 nM
2 | VacW-138 (antibody, V domains shown) VH: not shown VL: AIQLTQSPFSLSASVGDRVTITCRASQGISSALAWYQQKPGKAPKLLIYDASSLESGVPSRFSGSGSGTDFTLTISSLQPEDFATYFCQQVDTYQFTFGPGTKVDIK | 1.75 nM | 3.17 nM | 3.11 nM | 3.12 nM
3 | VacW-105 (antibody, V domains shown) VH: QVQLVQSGAEVKKPGSSVKVSCKASGGTFRSYTISWVRQAPGQGLEWMGRILPILGIANYAQKFQGRVTITADKSTSTAYMELSSLRSEDTAVYYCARVTGAPVESAAWFDPWGQGTLVTVSS VL: not shown | 3.37 nM | 4.13 nM | 5.1 nM | 5.22 nM
4 | VacW-201 (antibody, V domains shown) VH: EVQLVESGGGLVQPGGSLRLSCAASGFTFSSYWMNWVRQAPGKGLEWVANIKQDGSEKYYVDSVKGRFTISRDNAKNSLYLQMNSLRAEDTAVYYCARMEYPYGGVDYWGQGTLVTVSS VL: NFMLTQPHSVSESPGKTVTISCTGSSGSIASNYVQWYQQRPGSAPTTVIYEDNQRPSGVPDRFSGSIDSSSNSASLTISGLKTEDEADYYCQSYDSSNRNWVFGGGTKLTVL | 1.64 nM | 1.71 nM | 2.14 nM | 2.25 nM
5 | VacW-215 (antibody, V domains shown) VH: EVQLVESGGGLIQPGGSLRLSCAASGFTVSSNYMSWVRQAPGKGLEWVSVIYSGGSTYYADSVKGRFTISRDNSKNTLYLQMNSLRAEDTAVYYCARSTWLRGGFDYWGQGTLVTVSS VL: NFMLTQPHSVSESPGKTVTISCTGSSGSIASNYVQWYQQRPGSAPTTVIYEDNQRPSGVPDRFSGSIDSSSNSASLTISGLKTEDEADYYCQSYDSSNHFYVFGTGTKVTVL | 0.683 nM | 0.676 nM | 1.02 nM | 0.967 nM
6 | VacW-212 (antibody, V domains shown) VH: EVQLVESGGGLVQPGGSLRLSCAASGFTFSSYWMNWVRQAPGKGLEWVANIKQDESEKYYVDSVKGRFTISRDNAKNSLFLQMNSLRVEDTAVYYCARMEYPYGGIDYWGQGTLVTVSA VL: NFMLTQPHSVSESPGKTVTISCTGSSGSIASNYVQWYQQRPGSAPTTVIYEDNQRPSGVPDRFSGSIDSSSNSASLTISGLKTEDEADYYCQSYDSSNRNWVFGGGTKLTVL | 1.22 nM | 1.32 nM | 1.83 nM | 1.74 nM
